The values that follow come from IntAct's records for PubMed 21102411.

B1: Peroxisomal biogenesis factor 19 (Homo sapiens), P40855 (parent)
chain: MAAAEEGCSVGAEADRELEELLESALDDFDKAKPSPAPPSTTTAPDASGPQKRSPGDTAKDALFASQEKFFQELFDSELASQATAEFEKAMKELAEEEPHLVEQFQKLSEAAGRVGSDMTSQQEFTSCLKETLSGLAKNATDLQNSSMSEEELTKAMEGLGMDEGDGEGNILPIMQSIMQNLLSKDVLYPSLKEITEKYPEWLQSHRESLPPEQFEKYQEQHSVMCKICEQFEAETPTDSETTQKARFEMVLDLMQQLQDLGHPPKELAGEMPPGLNFDLDALNLSGPPGASGEQCLIM
partner: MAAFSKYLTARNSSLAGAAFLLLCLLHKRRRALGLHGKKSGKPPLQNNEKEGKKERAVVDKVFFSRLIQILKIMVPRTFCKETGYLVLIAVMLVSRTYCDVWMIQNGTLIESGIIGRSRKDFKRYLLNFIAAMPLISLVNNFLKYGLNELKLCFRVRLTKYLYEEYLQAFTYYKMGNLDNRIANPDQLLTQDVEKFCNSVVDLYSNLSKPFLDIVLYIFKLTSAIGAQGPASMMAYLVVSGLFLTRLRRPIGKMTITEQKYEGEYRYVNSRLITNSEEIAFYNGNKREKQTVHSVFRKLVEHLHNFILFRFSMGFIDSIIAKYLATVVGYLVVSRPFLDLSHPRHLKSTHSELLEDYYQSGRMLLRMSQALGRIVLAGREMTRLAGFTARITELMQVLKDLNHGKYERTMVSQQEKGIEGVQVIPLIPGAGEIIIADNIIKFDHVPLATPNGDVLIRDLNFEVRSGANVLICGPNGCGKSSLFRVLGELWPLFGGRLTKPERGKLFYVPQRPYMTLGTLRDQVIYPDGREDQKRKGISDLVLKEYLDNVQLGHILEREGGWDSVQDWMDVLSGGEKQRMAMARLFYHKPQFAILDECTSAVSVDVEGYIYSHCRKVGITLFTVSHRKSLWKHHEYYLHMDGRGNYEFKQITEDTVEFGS
B2: Peroxisomal biogenesis factor 19 (Homo sapiens), P40855 (parent)
chain: B1 chain
partner: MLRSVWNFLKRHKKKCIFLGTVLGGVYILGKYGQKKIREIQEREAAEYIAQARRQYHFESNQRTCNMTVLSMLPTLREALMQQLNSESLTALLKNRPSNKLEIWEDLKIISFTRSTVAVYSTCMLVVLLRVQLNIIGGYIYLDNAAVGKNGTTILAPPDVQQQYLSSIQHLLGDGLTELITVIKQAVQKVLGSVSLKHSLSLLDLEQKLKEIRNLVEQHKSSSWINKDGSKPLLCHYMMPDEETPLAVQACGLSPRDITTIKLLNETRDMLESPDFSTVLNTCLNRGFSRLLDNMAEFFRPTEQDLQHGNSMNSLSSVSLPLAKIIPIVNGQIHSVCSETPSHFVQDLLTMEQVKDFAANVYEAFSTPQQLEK

In the first test the parent is B1. The note with it: with abcd3_human ABCD3, P28288.
For the variant MAAAEEGCSVGAEADRELEELAESALDDFDKAKPSPAPPSTTTAPDASGPQKRSPGDTAKDALFASQEKFFQELFDSELASQATAEFEKAMKELAEEEPHLVEQFQKLSEAAGRVGSDMTSQQEFTSCLKETLSGLAKNATDLQNSSMSEEELTKAMEGLGMDEGDGEGNILPIMQSIMQNLLSKDVLYPSLKEITEKYPEWLQSHRESLPPEQFEKYQEQHSVMCKICEQFEAETPTDSETTQKARFEMVLDLMQQLQDLGHPPKELAGEMPPGLNFDLDALNLSGPPGASGEQCLIM [L22A], the “effect of a mutation on the interaction” value is reported as “disrupting interaction”.

In another test the parent is B1. The note with it: with abcd3_human ABCD3, P28288. This is another data set of the same source.
With MAAAEEGCSVGAEADRELEELLESALDDADKAKPSPAPPSTTTAPDASGPQKRSPGDTAKDALFASQEKFFQELFDSELASQATAEFEKAMKELAEEEPHLVEQFQKLSEAAGRVGSDMTSQQEFTSCLKETLSGLAKNATDLQNSSMSEEELTKAMEGLGMDEGDGEGNILPIMQSIMQNLLSKDVLYPSLKEITEKYPEWLQSHRESLPPEQFEKYQEQHSVMCKICEQFEAETPTDSETTQKARFEMVLDLMQQLQDLGHPPKELAGEMPPGLNFDLDALNLSGPPGASGEQCLIM [F29A], the “effect of a mutation on the interaction” value is recorded as “disrupting interaction”.

Another test covers variants of B2. The note with it: with pex3_human PEX3, P56589.
Consider MAAAEEGCSVGAEADRELEEALESALDDFDKAKPSPAPPSTTTAPDASGPQKRSPGDTAKDALFASQEKFFQELFDSELASQATAEFEKAMKELAEEEPHLVEQFQKLSEAAGRVGSDMTSQQEFTSCLKETLSGLAKNATDLQNSSMSEEELTKAMEGLGMDEGDGEGNILPIMQSIMQNLLSKDVLYPSLKEITEKYPEWLQSHRESLPPEQFEKYQEQHSVMCKICEQFEAETPTDSETTQKARFEMVLDLMQQLQDLGHPPKELAGEMPPGLNFDLDALNLSGPPGASGEQCLIM [L21A], for which the “effect of a mutation on the interaction” value is “disrupting interaction”.

The variants in a further test derive from B2. The note with it: with pex3_human PEX3, P56589. The source holds these as a separate data set.
In the case of MAAAEEGCSVGAEADRELEEALESALDDFDKAKPSPAPPSTTTAPDASGPQKRSPGDTAKDALFASQEKFFQELFDSELASQATAEFEKAMKELAEEEPHLVEQFQKLSEAAGRVGSDMTSQQEFTSCLKETLSGLAKNATDLQNSSMSEEELTKAMEGLGMDEGDGEGNILPIMQSIMQNLLSKDVLYPSLKEITEKYPEWLQSHRESLPPEQFEKYQEQHSVMCKICEQFEAETPTDSETTQKARFEMVLDLMQQLQDLGHPPKELAGEMPPGLNFDLDALNLSGPPGASGEQCLIM [L21A], the “effect of a mutation on the interaction” value is on record as “decreasing interaction”.

The next test covers variants of B2. To be noted: with pex3_human PEX3, P56589. The source holds these as a separate data set.
For the variant MAAAEEGCSVGAEADRELEELAESALDDFDKAKPSPAPPSTTTAPDASGPQKRSPGDTAKDALFASQEKFFQELFDSELASQATAEFEKAMKELAEEEPHLVEQFQKLSEAAGRVGSDMTSQQEFTSCLKETLSGLAKNATDLQNSSMSEEELTKAMEGLGMDEGDGEGNILPIMQSIMQNLLSKDVLYPSLKEITEKYPEWLQSHRESLPPEQFEKYQEQHSVMCKICEQFEAETPTDSETTQKARFEMVLDLMQQLQDLGHPPKELAGEMPPGLNFDLDALNLSGPPGASGEQCLIM [L22A], the “effect of a mutation on the interaction” value is listed as “disrupting interaction”.

Variants of B2 are the subject of a further test. The note with it: with pex3_human PEX3, P56589. The source holds these as a separate data set.
Consider MAAAEEGCSVGAEADRELEELLESALDAFDKAKPSPAPPSTTTAPDASGPQKRSPGDTAKDALFASQEKFFQELFDSELASQATAEFEKAMKELAEEEPHLVEQFQKLSEAAGRVGSDMTSQQEFTSCLKETLSGLAKNATDLQNSSMSEEELTKAMEGLGMDEGDGEGNILPIMQSIMQNLLSKDVLYPSLKEITEKYPEWLQSHRESLPPEQFEKYQEQHSVMCKICEQFEAETPTDSETTQKARFEMVLDLMQQLQDLGHPPKELAGEMPPGLNFDLDALNLSGPPGASGEQCLIM [D28A], for which the “effect of a mutation on the interaction” value is “decreasing interaction”.

The next test covers variants of B2. The note with it: with pex3_human PEX3, P56589. The source holds these as a separate data set.
In the case of MAAAEEGCSVGAEADRELEELLESAADDFDKAKPSPAPPSTTTAPDASGPQKRSPGDTAKDALFASQEKFFQELFDSELASQATAEFEKAMKELAEEEPHLVEQFQKLSEAAGRVGSDMTSQQEFTSCLKETLSGLAKNATDLQNSSMSEEELTKAMEGLGMDEGDGEGNILPIMQSIMQNLLSKDVLYPSLKEITEKYPEWLQSHRESLPPEQFEKYQEQHSVMCKICEQFEAETPTDSETTQKARFEMVLDLMQQLQDLGHPPKELAGEMPPGLNFDLDALNLSGPPGASGEQCLIM [L26A], the “effect of a mutation on the interaction” value is given as “decreasing interaction”.

Another test covers variants of B2. To be noted: with pex3_human PEX3, P56589. This is another data set of the same source.
In the case of MAAAEEGCSVGAEADRELEELLESALDDADKAKPSPAPPSTTTAPDASGPQKRSPGDTAKDALFASQEKFFQELFDSELASQATAEFEKAMKELAEEEPHLVEQFQKLSEAAGRVGSDMTSQQEFTSCLKETLSGLAKNATDLQNSSMSEEELTKAMEGLGMDEGDGEGNILPIMQSIMQNLLSKDVLYPSLKEITEKYPEWLQSHRESLPPEQFEKYQEQHSVMCKICEQFEAETPTDSETTQKARFEMVLDLMQQLQDLGHPPKELAGEMPPGLNFDLDALNLSGPPGASGEQCLIM [F29A], the “effect of a mutation on the interaction” value is recorded as “disrupting interaction”.

Variants of B2 are the subject of the next test. To be noted: with pex3_human PEX3, P56589. This is another data set of the same source.
As for MAAAEEGCSVGAEADREAEELLESALDDFDKAKPSPAPPSTTTAPDASGPQKRSPGDTAKDALFASQEKFFQELFDSELASQATAEFEKAMKELAEEEPHLVEQFQKLSEAAGRVGSDMTSQQEFTSCLKETLSGLAKNATDLQNSSMSEEELTKAMEGLGMDEGDGEGNILPIMQSIMQNLLSKDVLYPSLKEITEKYPEWLQSHRESLPPEQFEKYQEQHSVMCKICEQFEAETPTDSETTQKARFEMVLDLMQQLQDLGHPPKELAGEMPPGLNFDLDALNLSGPPGASGEQCLIM [L18A], the “effect of a mutation on the interaction” value is “disrupting interaction”.

In another test the parent is B2. The note with it: with pex3_human PEX3, P56589. The source holds these as a separate data set.
In the case of MAAAEEGCSVGAEADREAEELLESALDDFDKAKPSPAPPSTTTAPDASGPQKRSPGDTAKDALFASQEKFFQELFDSELASQATAEFEKAMKELAEEEPHLVEQFQKLSEAAGRVGSDMTSQQEFTSCLKETLSGLAKNATDLQNSSMSEEELTKAMEGLGMDEGDGEGNILPIMQSIMQNLLSKDVLYPSLKEITEKYPEWLQSHRESLPPEQFEKYQEQHSVMCKICEQFEAETPTDSETTQKARFEMVLDLMQQLQDLGHPPKELAGEMPPGLNFDLDALNLSGPPGASGEQCLIM [L18A], the “effect of a mutation on the interaction” value was “decreasing interaction”.
